Measurements published in patent publication US20250352667A1.
One block for each binder: values may come before it.

How the values were obtained:
[1] = target: KEAP1 (wild-type full-length), His-tagged (human) (UniProt Q14145); experiment: AlphaScreen; 38.4 nM FLAG-NRF2, 150 nM His-KEAP1; wild type set to 100%
[2] = target: KEAP1 (wild-type full-length), His-tagged (human) (UniProt Q14145); experiment: AlphaScreen; 19.2 nM FLAG-NRF2, 150 nM His-KEAP1; Rep 2; control for I86V
[3] = target: KEAP1 (wild-type full-length), His-tagged (human) (UniProt Q14145); experiment: AlphaScreen; 38.4 nM FLAG-NRF2, 150 nM His-KEAP1; Rep 2; control for I86V
[4] = target: KEAP1 (wild-type full-length), His-tagged (human) (UniProt Q14145); experiment: AlphaScreen; 307.2 nM FLAG-NRF2, 150 nM His-KEAP1; Rep 3; control for I86V
[5] = target: KEAP1 (wild-type full-length), His-tagged (human) (UniProt Q14145); experiment: AlphaScreen; 19.2 nM FLAG-NRF2, 150 nM His-KEAP1; Repeat 2 (same value as in Table 26)
[6] = target: KEAP1 (wild-type full-length), His-tagged (human) (UniProt Q14145); experiment: AlphaScreen; NRF2 wt isoform 1 38.4 nM, KEAP1 150 nM; set as the 100 % reference for I86V
[7] = target: KEAP1 (wild-type full-length), His-tagged (human) (UniProt Q14145); experiment: AlphaScreen; 2.4 nM FLAG-NRF2, 150 nM His-KEAP1; signal against NRF2 only; control for I28V
[8] = target: KEAP1 (wild-type full-length), His-tagged (human) (UniProt Q14145); experiment: AlphaScreen; 9.6 nM FLAG-NRF2, 150 nM His-KEAP1; signal against NRF2 only; control for I86V
[9] = target: KEAP1 (wild-type full-length), His-tagged (human) (UniProt Q14145); experiment: AlphaScreen; 38.4 nM FLAG-NRF2, 150 nM His-KEAP1; signal against NRF2 only; control for I28V
[10] = target: KEAP1 (wild-type full-length), His-tagged (human) (UniProt Q14145); experiment: AlphaScreen; 153.6 nM FLAG-NRF2, 150 nM His-KEAP1; signal against NRF2 only; control for I86V
[11] = target: KEAP1 (wild-type full-length), His-tagged (human) (UniProt Q14145); experiment: AlphaScreen; FLAG-NRF2 wt isoform 1 4.8 nM, His-KEAP1 150 nM; Rep 2; positive control for Q75R
[12] = target: KEAP1 (wild-type full-length), His-tagged (human) (UniProt Q14145); experiment: AlphaScreen; FLAG-NRF2 wt isoform 1 38.4 nM, His-KEAP1 150 nM; Rep 3; positive control for I86V
[13] = target: KEAP1 (wild-type full-length), His-tagged (human) (UniProt Q14145); experiment: AlphaScreen; FLAG-NRF2 wt isoform 1 76.8 nM, His-KEAP1 150 nM; Rep 1; positive control for Q75R
[14] = target: KEAP1 (wild-type full-length), His-tagged (human) (UniProt Q14145); experiment: AlphaScreen; FLAG-NRF2 wt isoform 1 153.6 nM, His-KEAP1 150 nM; Rep 1; positive control for Q75R
[15] = target: KEAP1 (wild-type full-length), His-tagged (human) (UniProt Q14145); experiment: AlphaScreen; NRF2 wt isoform 1 2.4 nM, KEAP1 150 nM; signal against NRF2-only control; control for Q75R
[16] = target: KEAP1 (wild-type full-length), His-tagged (human) (UniProt Q14145); experiment: AlphaScreen, all variants on one plate; average of three conditions, KEAP1 150 nM; the reference itself
[17] = target: KEAP1 (wild-type full-length), His-tagged (human) (UniProt Q14145); experiment: AlphaScreen; NRF2 wt isoform 1 76.8 nM, KEAP1 150 nM; signal against NRF2-only control; control for Q75R
[18] = target: KEAP1 (wild-type full-length), His-tagged (human) (UniProt Q14145); experiment: AlphaScreen; FLAG-NRF2 Q75R 9.6 nM, His-KEAP1 150 nM; Rep 1
[19] = target: KEAP1 (wild-type full-length), His-tagged (human) (UniProt Q14145); experiment: AlphaScreen; FLAG-NRF2 Q75R 38.4 nM, His-KEAP1 150 nM; Rep 1
[20] = target: KEAP1 (wild-type full-length), His-tagged (human) (UniProt Q14145); experiment: AlphaScreen; NRF2 Q75R 2.4 nM, KEAP1 150 nM; signal against NRF2-only control
[21] = target: KEAP1 (wild-type full-length), His-tagged (human) (UniProt Q14145); experiment: AlphaScreen; FLAG-NRF2 I86V 76.8 nM, His-KEAP1 150 nM; Rep 3
[22] = target: KEAP1 (wild-type full-length), His-tagged (human) (UniProt Q14145); experiment: AlphaScreen; FLAG-NRF2 I86V 307.2 nM, His-KEAP1 150 nM; Rep 2
[23] = target: KEAP1 (wild-type full-length), His-tagged (human) (UniProt Q14145); experiment: AlphaScreen; FLAG-NRF2 I86V 614.4 nM, His-KEAP1 150 nM; Rep 1
[24] = target: KEAP1 (wild-type full-length), His-tagged (human) (UniProt Q14145); experiment: AlphaScreen; 4.8 nM FLAG-NRF2, 150 nM His-KEAP1; Rep 2
[25] = target: KEAP1 (wild-type full-length), His-tagged (human) (UniProt Q14145); experiment: AlphaScreen; 38.4 nM FLAG-NRF2, 150 nM His-KEAP1; Rep 2
[26] = target: KEAP1 (wild-type full-length), His-tagged (human) (UniProt Q14145); experiment: AlphaScreen; 307.2 nM FLAG-NRF2, 150 nM His-KEAP1; Rep 1
[27] = target: KEAP1 (wild-type full-length), His-tagged (human) (UniProt Q14145); experiment: AlphaScreen; 153.6 nM FLAG-NRF2, 150 nM His-KEAP1; signal against NRF2 only

KEAP1 (wild-type full-length), His-tagged (human), sequence (Q14145 2-624 limits assumed): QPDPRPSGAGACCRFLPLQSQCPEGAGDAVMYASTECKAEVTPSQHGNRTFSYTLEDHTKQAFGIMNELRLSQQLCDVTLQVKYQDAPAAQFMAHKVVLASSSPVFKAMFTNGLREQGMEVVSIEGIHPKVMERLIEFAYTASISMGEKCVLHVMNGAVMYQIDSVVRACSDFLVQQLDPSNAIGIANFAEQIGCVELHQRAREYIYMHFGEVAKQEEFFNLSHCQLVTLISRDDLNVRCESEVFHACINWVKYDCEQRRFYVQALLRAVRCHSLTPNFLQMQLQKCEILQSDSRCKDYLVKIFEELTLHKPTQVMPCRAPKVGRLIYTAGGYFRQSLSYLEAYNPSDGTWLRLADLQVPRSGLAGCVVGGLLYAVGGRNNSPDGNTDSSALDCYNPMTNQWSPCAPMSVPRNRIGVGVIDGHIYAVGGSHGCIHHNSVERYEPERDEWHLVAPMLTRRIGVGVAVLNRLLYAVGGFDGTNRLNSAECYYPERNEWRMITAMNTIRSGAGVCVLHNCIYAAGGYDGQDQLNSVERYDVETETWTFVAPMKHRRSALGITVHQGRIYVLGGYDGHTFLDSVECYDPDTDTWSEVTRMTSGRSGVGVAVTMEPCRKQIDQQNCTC

B3: NRF2 isoform 1 (I86V full-length), FLAG-tagged (protein)
chain: MMDLELPPPGLPSQQDMDLIDILWRQDIDLGVSREVFDFSQRRKEYELEKQKKLEKERQEQLQKEQEKAFFAQLQLDEETGEFLPVQPAQHIQSETSGSANYSQVAHIPKSDALYFDDCMQLLAQTFPFVDDNEVSSATFQSLVPDIPGHIESPVFIATNQAQSPETSVAQVAPVDLDGMQQDIEQVWEELLSIPELQCLNIENDKLVETTMVPSPEAKLTEVDNYHFYSSIPSMEKEVGNCSPHFLNAFEDSFSSILSTEDPNQLTVNSLNSDATVNTDFGDEFYSAFIAEPSISNSMPSPATLSHSLSELLNGPIDVSDLSLCKAFNQNHPESTAEFNDSDSGISLNTSPSVASPEHSVESSSYGDTLLGLSDSEVEELDSAPGSVKQNGPKTPVHSSGDMVQPLSPSQGQSTHVHDAQCENTPEKELPVSPGHRKTPFTKDKHSSRLEAHLTRDELRAKALHIPFPVEKIINLPVVDFNEMMSKEQFNEAQLALIRDIRRRGKNKVAAQNCRKRKLENIVELEQDLDHLKDEKEKLLKEKGENDKSLHLLKKQLSTLYLEVFSMLRDEDGKPYSPSEYSLQQTRDGNVFLVPKSKKPDVKKN
A-counts (NRF2 plus KEAP1) [21]: 2560 A-counts
A-counts (NRF2 plus KEAP1) [22]: 2120 A-counts
A-counts (NRF2 plus KEAP1) [23]: 2000 A-counts

B4: NRF2 isoform 1 (I28V full-length), FLAG-tagged (protein)
chain: MMDLELPPPGLPSQQDMDLIDILWRQDVDLGVSREVFDFSQRRKEYELEKQKKLEKERQEQLQKEQEKAFFAQLQLDEETGEFLPIQPAQHIQSETSGSANYSQVAHIPKSDALYFDDCMQLLAQTFPFVDDNEVSSATFQSLVPDIPGHIESPVFIATNQAQSPETSVAQVAPVDLDGMQQDIEQVWEELLSIPELQCLNIENDKLVETTMVPSPEAKLTEVDNYHFYSSIPSMEKEVGNCSPHFLNAFEDSFSSILSTEDPNQLTVNSLNSDATVNTDFGDEFYSAFIAEPSISNSMPSPATLSHSLSELLNGPIDVSDLSLCKAFNQNHPESTAEFNDSDSGISLNTSPSVASPEHSVESSSYGDTLLGLSDSEVEELDSAPGSVKQNGPKTPVHSSGDMVQPLSPSQGQSTHVHDAQCENTPEKELPVSPGHRKTPFTKDKHSSRLEAHLTRDELRAKALHIPFPVEKIINLPVVDFNEMMSKEQFNEAQLALIRDIRRRGKNKVAAQNCRKRKLENIVELEQDLDHLKDEKEKLLKEKGENDKSLHLLKKQLSTLYLEVFSMLRDEDGKPYSPSEYSLQQTRDGNVFLVPKSKKPDVKKN
A-counts [24]: 1050 A-counts
A-counts [25]: 1680 A-counts
A-counts [26]: 1310 A-counts
S/N [27]: 1.7

Next, values leading:

Binding Percentage (%) [1]: 100%
A-counts [2]: 3270 A-counts
A-counts [3]: 2850 A-counts
A-counts [4]: 2910 A-counts
A-counts [5]: 2000 A-counts
Binding Percentage [6]: 100%
S/N [7]: 2.2
S/N [8]: 3.6
S/N [9]: 3.6
S/N [10]: 2
A-counts (NRF2 plus KEAP1) [11]: 754 A-counts
A-counts (NRF2 plus KEAP1) [12]: 3130 A-counts
A-counts (NRF2 plus KEAP1) [13]: 1490 A-counts
A-counts (NRF2 plus KEAP1) [14]: 1380 A-counts
S/N [15]: 1.4
% Disruption in Binding (Reported Values) [16]: 0%
S/N [17]: 2.5
B1: NRF2 isoform 1 (wild-type full-length), FLAG-tagged (protein)
chain: MMDLELPPPGLPSQQDMDLIDILWRQDIDLGVSREVFDFSQRRKEYELEKQKKLEKERQEQLQKEQEKAFFAQLQLDEETGEFLPIQPAQHIQSETSGSANYSQVAHIPKSDALYFDDCMQLLAQTFPFVDDNEVSSATFQSLVPDIPGHIESPVFIATNQAQSPETSVAQVAPVDLDGMQQDIEQVWEELLSIPELQCLNIENDKLVETTMVPSPEAKLTEVDNYHFYSSIPSMEKEVGNCSPHFLNAFEDSFSSILSTEDPNQLTVNSLNSDATVNTDFGDEFYSAFIAEPSISNSMPSPATLSHSLSELLNGPIDVSDLSLCKAFNQNHPESTAEFNDSDSGISLNTSPSVASPEHSVESSSYGDTLLGLSDSEVEELDSAPGSVKQNGPKTPVHSSGDMVQPLSPSQGQSTHVHDAQCENTPEKELPVSPGHRKTPFTKDKHSSRLEAHLTRDELRAKALHIPFPVEKIINLPVVDFNEMMSKEQFNEAQLALIRDIRRRGKNKVAAQNCRKRKLENIVELEQDLDHLKDEKEKLLKEKGENDKSLHLLKKQLSTLYLEVFSMLRDEDGKPYSPSEYSLQQTRDGNVFLVPKSKKPDVKKN

A-counts (NRF2 plus KEAP1) [18]: 1180 A-counts
A-counts (NRF2 plus KEAP1) [19]: 1200 A-counts
S/N [20]: 2
B2: NRF2 isoform 1 (Q75R full-length), FLAG-tagged (protein)
chain: MMDLELPPPGLPSQQDMDLIDILWRQDIDLGVSREVFDFSQRRKEYELEKQKKLEKERQEQLQKEQEKAFFAQLRLDEETGEFLPIQPAQHIQSETSGSANYSQVAHIPKSDALYFDDCMQLLAQTFPFVDDNEVSSATFQSLVPDIPGHIESPVFIATNQAQSPETSVAQVAPVDLDGMQQDIEQVWEELLSIPELQCLNIENDKLVETTMVPSPEAKLTEVDNYHFYSSIPSMEKEVGNCSPHFLNAFEDSFSSILSTEDPNQLTVNSLNSDATVNTDFGDEFYSAFIAEPSISNSMPSPATLSHSLSELLNGPIDVSDLSLCKAFNQNHPESTAEFNDSDSGISLNTSPSVASPEHSVESSSYGDTLLGLSDSEVEELDSAPGSVKQNGPKTPVHSSGDMVQPLSPSQGQSTHVHDAQCENTPEKELPVSPGHRKTPFTKDKHSSRLEAHLTRDELRAKALHIPFPVEKIINLPVVDFNEMMSKEQFNEAQLALIRDIRRRGKNKVAAQNCRKRKLENIVELEQDLDHLKDEKEKLLKEKGENDKSLHLLKKQLSTLYLEVFSMLRDEDGKPYSPSEYSLQQTRDGNVFLVPKSKKPDVKKN
